B4: c-Jun N-terminal protein kinase (JNK), 46 kD form, endogenous kinase from cell extracts (enzyme)
chain: MSRSKRDNNFYSVEIGDSTFTVLKRYQNLKPIGSGAQGIVCAAYDAILERNVAIKKLSRPFQNQTHAKRAYRELVLMKCVNHKNIIGLLNVFTPQKSLEEFQDVYIVMELMDANLCQVIQMELDHERMSYLLYQMLCGIKHLHSAGIIHRDLKPSNIVVKSDCTLKILDFGLARTAGTSFMMTPYVVTRYYRAPEVILGMGYKENVDLWSVGCIMGEMVCHKILFPGRDYIDQWNKVIEQLGTPCPEFMKKLQPTVRTYVENRPKYAGYSFEKLFPDVLFPADSEHNKLKASQARDLLSKMLVIDASKRISVDEALQHPYINVWYDPSEAEAPPPKIPDKQLDEREHTIEEWKELIYKEVMDLEERTKNGVIRGQPSPLAQVQQ
B5: epitope-tagged JNK1 (Flag epitope Asp-Tyr-Lys-Asp-Asp-Asp-Asp-Lys inserted between codons 1 and 2), expressed in COS cells (enzyme)
chain: MDYKDDDDKSRSKRDNNFYSVEIGDSTFTVLKRYQNLKPIGSGAQGIVCAAYDAILERNVAIKKLSRPFQNQTHAKRAYRELVLMKCVNHKNIIGLLNVFTPQKSLEEFQDVYIVMELMDANLCQVIQMELDHERMSYLLYQMLCGIKHLHSAGIIHRDLKPSNIVVKSDCTLKILDFGLARTAGTSFMMTPYVVTRYYRAPEVILGMGYKENVDLWSVGCIMGEMVCHKILFPGRDYIDQWNKVIEQLGTPCPEFMKKLQPTVRTYVENRPKYAGYSFEKLFPDVLFPADSEHNKLKASQARDLLSKMLVIDASKRISVDEALQHPYINVWYDPSEAEAPPPKIPDKQLDEREHTIEEWKELIYKEVMDLEERTKNGVIRGQPSPLAQVQQ
notes: Tag inserted between codons 1 and 2 of the JNK1 cDNA in pCMV5; also called immunopurified JNK1

How the values were obtained:
[1] = biological target: B4; assay: GSTcJun deletion mutants on GSH-agarose, UV-irradiated HeLa extract; solid-phase kinase assay and eluted-kinase assay
[2] = biological target: B5; assay: immunopurified JNK1 on GST-Jun fusion proteins bound to GSH-agarose, solid-phase kinase assay
Procedure: (§1) Clarified cell extracts were incubated with GST fusion proteins immobilized on GSH-agarose beads. […] The reaction was terminated after 10 mins at 30° C. and the products were resolved by SDS-PAGE. The incorporation of [^32P]phosphate was visualized by autoradiography and quantitated with a phosphorimager and ImageQuant software (Molecular Dynamics Inc., Sunnyvale, Calif.).
(§2) Mock-transfected COS cells were used as a control. After 1 hour, the cells were lysed and subjected to immunoprecipitation with the M2 monoclonal antibody. […] The phosphorylated proteins were resolved by SDS-PAGE and detected by autoradiography.

[3] = biological target: B5; assay: COS cell lysates on GST-cJun(1-79) immobilized on GSH-agarose beads, Western blot with M2 antibody
Procedure: COS cell extracts (250 µg) were incubated with 20 µg GST or GST-cJun immobilized on 10 µl GSH-agarose at 4° C. for 5 hours.
Mock-transfected COS cells were used in control experiments (lanes 1 & 2). The cells were either untreated (lanes 1 & 3) or irradiated with 40 J/m^2 UV-C (lanes 2, 4, & 5). Cell lysates were prepared and incubated with GST-cJun(1-79) (lanes 1–4) or GST (lane 5) immobilized on GSH-agarose beads.

[4] = biological target: GAL4-cJun(1-223), GAL4 DNA binding domain fused to c-Jun AA 1-223 (yeast; human, UniProt P04386 1-147); assay: cell-based or functional assay
[5] = biological target: T1, GSTcJun(wt), glutathione-S-transferase fused to c-Jun AA 1-223 (human, UniProt P08515 1-218 = GST); assay: immunopurified JNK1 on GST-Jun fusion proteins bound to GSH-agarose, solid-phase kinase assay
T1 construct: Expressed in E. coli, held on GSH-agarose beads; also called human GSTcJun
Procedure: as §1, §2

B1: GST-cJun(43-223), GST fused to c-Jun AA 43-223 (other)
chain: ADPVGSLKPHLRAKNSDLLTSPDVGLLKLASPELERLIIQSSNGHITTTPTPTQFLCPKNVTDEQEGFAEGFVRALAELHSQNTLPSVTSAAQPVNGAGMVAPAVASVAGGSGSGGFSASLHSEPPVYANLSNFNPGALSSGGGAPSYGAAGLAFPAQPQQQQQPPHHLPQQMPVQHPRLQ
notes: also called removal of AA 1-42; deletion of residues 1-42; not shown: GST carrier (pGEX3X, Pharmacia) and the vector junction residues
binding result [1]: no binding | binding result [2]: no binding

B2: GSTcJun(33-223), GST fused to c-Jun AA 33-223 (other)
chain: ILKQSMTLNLADPVGSLKPHLRAKNSDLLTSPDVGLLKLASPELERLIIQSSNGHITTTPTPTQFLCPKNVTDEQEGFAEGFVRALAELHSQNTLPSVTSAAQPVNGAGMVAPAVASVAGGSGSGGFSASLHSEPPVYANLSNFNPGALSSGGGAPSYGAAGLAFPAQPQQQQQPPHHLPQQMPVQHPRLQ
notes: also called removal of AA 1-32; not shown: GST carrier (pGEX3X, Pharmacia) and the vector junction residues
binding result [2]: binds

B3: GST-cJun(1-79), GST fused to c-Jun AA 1-79 (other)
chain: MTAKMETTFYDDALNASFLPSESGPYGYSNPKILKQSMTLNLADPVGSLKPHLRAKNSDLLTSPDVGLLKLASPELERL
notes: also called GST fusion protein containing AA 1-79 of c-Jun; not shown: glutathione-S-transferase (GST) carrier encoded by pGEX3X (Pharmacia)
binding result [3]: binds

B4
Ha-Ras responsiveness, CAT activity of 5xGAL4-Elb-CAT reporter in F9 cells [4]: 19 fold induction | UV responsiveness, CAT activity of 5xGAL4-Elb-CAT reporter in F9 cells [4]: 7.5 fold

B5
binding result [5]: binds

Reference: patent US6863888 (University of California, dated 2005)
